Entries after “also recorded” stand apart in the source; their conditions may differ.
Assays:
[1] = Determination of fibres eluting from matrix (TEM of artificially chewed toffee-saliva); assay type: physicochemical; details: toffee with assembled P11-4 (35 mg/ml), 3 mL artificial saliva, artificial chew 5 min
Procedure: Sample: • Place 1 toffee with or without assembled P11-4 (35 mg/ml) in artificial saliva 3 mL (cf. Example 2) • Artificial chew for 5 min in artificial mastication equipment. • Remove supernatant (saliva) Method TEM • Dilute sample (10 mg/mL) with H2O at a ratio of 1:63 • Place 1 μL of control solution on TEM-grid Sample • Place 20 μL of water on a parafilm • Place gently the TEM Grid with dark site facing upwards on the parafilm, close to the drop • Application of 10 μL sample on TEM carbon coated grids (hexagonal) • 10 min incubation • Remove unbound sample with a paper tissue • Put the grid into 3% Uranylacetate solution 20 ul • 40 sec incubation • Remove unbound Uranylacetate with a paper tissue • Wash the grid 2 times with distilled water • pipet 5 μL droplet on top of the grid and remove it • Dry it for 20 min at RT • Introduce sample into sample holder for TEM • Analyse @ 50 kV, Vacuum at least 9*10-6 hPa

[2] = cited from earlier work; for pH at which the peptide starts to undergo self-assembly: in solution

| Substance | assembled fibres of peptide in artificial saliva after mastication (TEM) [1] | pH at which the peptide starts to undergo self-assembly [2] | assembly state ([2]; ionic strength corresponding to 150 mM NaCl, neutral pH (Carrick et al., 2007)) |
| --- | --- | --- | --- |
| QQRFEWEFEQQ (self-assembling peptide P11-4) | distinct fibre bundle; also recorded: maintains its assembled form | about 7.5 | assembled |
| terminally modified P11-4: peptide P11-4 that is N-terminally acetylated and C-terminally amidated with a NH2-group (Ac-QQRFEWEFEQQ-NH2) |  | about 7.5 |  |
